{
  "source": "the RNAGym collection of RNA variant scans (doi:10.1021/acssynbio.7b00057)",
  "parents": {"B1": {"name": "Pistol ribozyme (parent)", "chain": "GGGUCGUUGUUCCAUAAUCGCGUGGAUAUGGCACGCAAGUUUCUACCGGGCACCGUAAAUGUCCGACUGGAGCCGUUCGGGCGGCUAUAAACAGACCUCAGGCCCGAAGCGUGGCGGCACCUGCCGCCGGUGGUAAAAAAGAUCGGAAGAGCACACGUCU"}},
  "data": [
    {"variants_of": "B1", "assay": "aptazyme ON/OFF ratio, guanine; higher = stronger switching; co-transcriptional cleavage with and without guanine", "values": [
      {"variant": "GGGUCGUCUGUACAUAAUCGCGUGGAUAUGGCACGCAAGUUUCUACCGGGCACCGUAAAUGUCCGACUGGAGCCGUUCGGGCGGCUAUAAACAGACCUCAGGCCCGAAGCGUGGCGGCACCUGCCGCCGGUGGUAAAAAAGAUCGGAAGAGCACACGUCU", "aptazyme ON/OFF ratio": 1.66},
      {"variant": "GGGUCGAAGUUCGAUAAUCGCGUGGAUAUGGCACGCAAGUUUCUACCGGGCACCGUAAAUGUCCGACUGGAGCCGUUCGGGCGGCUAUAAACAGACCUCAGGCCCGAAGCGUGGCGGCACCUGCCGCCGGUGGUAAAAAAGAUCGGAAGAGCACACGUCU", "aptazyme ON/OFF ratio": 1.22},
      {"variant": "GGGUCGUGCUUAAAUAAUCGCGUGGAUAUGGCACGCAAGUUUCUACCGGGCACCGUAAAUGUCCGACUGGAGCCGUUCGGGCGGCUAUAAACAGACCUCAGGCCCGAAGCGUGGCGGCACCUGCCGCCGGUGGUAAAAAAGAUCGGAAGAGCACACGUCU", "aptazyme ON/OFF ratio": 1.04},
      {"variant": "GGGUCGAUCCUACAUAAUCGCGUGGAUAUGGCACGCAAGUUUCUACCGGGCACCGUAAAUGUCCGACUGGAGCCGUUCGGGCGGCUAUAAACAGACCUCAGGCCCGAAGCGUGGCGGCACCUGCCGCCGGUGGUAAAAAAGAUCGGAAGAGCACACGUCU", "aptazyme ON/OFF ratio": 1.04},
      {"variant": "GGGUCGCAGUGUUAUAAUCGCGUGGAUAUGGCACGCAAGUUUCUACCGGGCACCGUAAAUGUCCGACUGGAGCCGUUCGGGCGGCUAUAAACAGACCUCAGGCCCGAAGCGUGGCGGCACCUGCCGCCGGUGGUAAAAAAGAUCGGAAGAGCACACGUCU", "aptazyme ON/OFF ratio": 1.37},
      {"variant": "GGGUCGAAUGGACAUAAUCGCGUGGAUAUGGCACGCAAGUUUCUACCGGGCACCGUAAAUGUCCGACUGGAGCCGUUCGGGCGGCUAUAAACAGACCUCAGGCCCGAAGCGUGGCGGCACCUGCCGCCGGUGGUAAAAAAGAUCGGAAGAGCACACGUCU", "aptazyme ON/OFF ratio": 1.13},
      {"variant": "GGGUCGAUAUGAUAUAAUCGCGUGGAUAUGGCACGCAAGUUUCUACCGGGCACCGUAAAUGUCCGACUGGAGCCGUUCGGGCGGCUAUAAACAGACCUCAGGCCCGAAGCGUGGCGGCACCUGCCGCCGGUGGUAAAAAAGAUCGGAAGAGCACACGUCU", "aptazyme ON/OFF ratio": 1.28},
      {"variant": "GGGUCGUGACGCAAUAAUCGCGUGGAUAUGGCACGCAAGUUUCUACCGGGCACCGUAAAUGUCCGACUGGAGCCGUUCGGGCGGCUAUAAACAGACCUCAGGCCCGAAGCGUGGCGGCACCUGCCGCCGGUGGUAAAAAAGAUCGGAAGAGCACACGUCU", "aptazyme ON/OFF ratio": 1.11},
      {"variant": "GGGUCGAUAAAUAAUAAUCGCGUGGAUAUGGCACGCAAGUUUCUACCGGGCACCGUAAAUGUCCGACUGGAGCCGUUCGGGCGGCUAUAAACAGACCUCAGGCCCGAAGCGUGGCGGCACCUGCCGCCGGUGGUAAAAAAGAUCGGAAGAGCACACGUCU", "aptazyme ON/OFF ratio": 1.19},
      {"variant": "GGGUCGUAGGGCCAUAAUCGCGUGGAUAUGGCACGCAAGUUUCUACCGGGCACCGUAAAUGUCCGACUGGAGCCGUUCGGGCGGCUAUAAACAGACCUCAGGCCCGAAGCGUGGCGGCACCUGCCGCCGGUGGUAAAAAAGAUCGGAAGAGCACACGUCU", "aptazyme ON/OFF ratio": 1.16},
      {"variant": "GGGUCGGCUAACCAUAAUCGCGUGGAUAUGGCACGCAAGUUUCUACCGGGCACCGUAAAUGUCCGACUGGAGCCGUUCGGGCGGCUAUAAACAGACCUCAGGCCCGAAGCGUGGCGGCACCUGCCGCCGGUGGUAAAAAAGAUCGGAAGAGCACACGUCU", "aptazyme ON/OFF ratio": 4.34},
      {"variant": "GGGUCGGCAUAGUAUAAUCGCGUGGAUAUGGCACGCAAGUUUCUACCGGGCACCGUAAAUGUCCGACUGGAGCCGUUCGGGCGGCUAUAAACAGACCUCAGGCCCGAAGCGUGGCGGCACCUGCCGCCGGUGGUAAAAAAGAUCGGAAGAGCACACGUCU", "aptazyme ON/OFF ratio": 1.1},
      {"variant": "GGGUCGCUCGGUUAUAAUCGCGUGGAUAUGGCACGCAAGUUUCUACCGGGCACCGUAAAUGUCCGACUGGAGCCGUUCGGGCGGCUAUAAACAGACCUCAGGCCCGAAGCGUGGCGGCACCUGCCGCCGGUGGUAAAAAAGAUCGGAAGAGCACACGUCU", "aptazyme ON/OFF ratio": 1.12},
      {"variant": "GGGUCGUUAUGAGAUAAUCGCGUGGAUAUGGCACGCAAGUUUCUACCGGGCACCGUAAAUGUCCGACUGGAGCCGUUCGGGCGGCUAUAAACAGACCUCAGGCCCGAAGCGUGGCGGCACCUGCCGCCGGUGGUAAAAAAGAUCGGAAGAGCACACGUCU", "aptazyme ON/OFF ratio": 1.31},
      {"variant": "GGGUCGGCCUAGAAUAAUCGCGUGGAUAUGGCACGCAAGUUUCUACCGGGCACCGUAAAUGUCCGACUGGAGCCGUUCGGGCGGCUAUAAACAGACCUCAGGCCCGAAGCGUGGCGGCACCUGCCGCCGGUGGUAAAAAAGAUCGGAAGAGCACACGUCU", "aptazyme ON/OFF ratio": 1.13},
      {"variant": "GGGUCGGGGGACCAUAAUCGCGUGGAUAUGGCACGCAAGUUUCUACCGGGCACCGUAAAUGUCCGACUGGAGCCGUUCGGGCGGCUAUAAACAGACCUCAGGCCCGAAGCGUGGCGGCACCUGCCGCCGGUGGUAAAAAAGAUCGGAAGAGCACACGUCU", "aptazyme ON/OFF ratio": 1.66},
      {"variant": "GGGUCGGAUAGUGAUAAUCGCGUGGAUAUGGCACGCAAGUUUCUACCGGGCACCGUAAAUGUCCGACUGGAGCCGUUCGGGCGGCUAUAAACAGACCUCAGGCCCGAAGCGUGGCGGCACCUGCCGCCGGUGGUAAAAAAGAUCGGAAGAGCACACGUCU", "aptazyme ON/OFF ratio": 1.08},
      {"variant": "GGGUCGUAUUCGAAUAAUCGCGUGGAUAUGGCACGCAAGUUUCUACCGGGCACCGUAAAUGUCCGACUGGAGCCGUUCGGGCGGCUAUAAACAGACCUCAGGCCCGAAGCGUGGCGGCACCUGCCGCCGGUGGUAAAAAAGAUCGGAAGAGCACACGUCU", "aptazyme ON/OFF ratio": 1.14}
    ]}
  ]
}
